We go through one molecule from article PMC1636348.

In this data set the target is DNA polymerase mu (Polμ) wild type (Homo sapiens, UniProt Q9NP87 1-494). Briefly: EMSA. (In general: In EMSA bound probe runs differently from free probe, usually more slowly.)
DNA polymerase mu (Polμ) wild type, sequence (Q9NP87 whole entry): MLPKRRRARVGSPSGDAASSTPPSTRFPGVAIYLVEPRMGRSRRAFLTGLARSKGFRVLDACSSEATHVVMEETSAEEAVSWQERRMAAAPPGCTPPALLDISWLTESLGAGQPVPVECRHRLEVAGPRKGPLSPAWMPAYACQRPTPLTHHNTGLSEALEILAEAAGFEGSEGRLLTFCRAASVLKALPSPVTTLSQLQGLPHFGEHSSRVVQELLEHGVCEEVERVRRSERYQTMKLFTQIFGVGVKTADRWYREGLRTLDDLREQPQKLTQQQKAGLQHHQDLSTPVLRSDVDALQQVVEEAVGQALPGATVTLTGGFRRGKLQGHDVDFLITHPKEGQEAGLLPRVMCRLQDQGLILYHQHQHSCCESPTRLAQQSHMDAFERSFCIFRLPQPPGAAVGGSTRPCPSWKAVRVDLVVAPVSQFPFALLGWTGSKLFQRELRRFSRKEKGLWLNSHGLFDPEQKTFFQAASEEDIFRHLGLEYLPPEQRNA

B1: Blunt (P19+T19) (dsDNA)
DNA 1: GATCACAGTGAGTACAATA
DNA 2: TATTGTACTCACTGTGATC
With B1, the binding result was “no binding”.
